Experimental data: article PMC9582512
Where two headings read alike, the source gives them in different places.

Legend:
[1] = biological target: human recombinant biotinylated FcγRIIb (CD32b) (human) (UniProt P31994); assay: BLI
[2] = biological target: human recombinant biotinylated FcγRIIb (CD32b) (human) (UniProt P31994); assay: BLI; remark: listed apart in the source

Sequence of human recombinant biotinylated FcγRIIb (CD32b) (human) (P31994 43-217): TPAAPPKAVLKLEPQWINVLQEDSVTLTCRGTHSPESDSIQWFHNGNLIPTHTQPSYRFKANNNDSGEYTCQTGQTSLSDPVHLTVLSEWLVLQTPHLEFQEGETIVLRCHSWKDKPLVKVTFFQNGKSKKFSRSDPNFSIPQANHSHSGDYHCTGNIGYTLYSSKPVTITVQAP
Sequence of recombinant anti-Fel d 1 monoclonal antibody F127, human IgG4 format (P01861 whole entry, looked up): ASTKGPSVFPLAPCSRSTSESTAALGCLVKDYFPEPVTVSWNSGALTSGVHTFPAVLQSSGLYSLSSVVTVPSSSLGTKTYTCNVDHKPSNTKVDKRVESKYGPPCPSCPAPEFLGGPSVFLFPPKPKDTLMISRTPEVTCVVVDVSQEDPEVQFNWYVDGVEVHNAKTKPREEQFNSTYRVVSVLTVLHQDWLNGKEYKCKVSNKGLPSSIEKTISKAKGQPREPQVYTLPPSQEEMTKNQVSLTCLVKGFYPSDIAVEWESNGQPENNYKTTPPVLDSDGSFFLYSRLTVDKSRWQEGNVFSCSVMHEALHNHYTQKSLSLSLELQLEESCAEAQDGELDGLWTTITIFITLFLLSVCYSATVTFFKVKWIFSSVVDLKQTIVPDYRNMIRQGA
Sequence of recombinant anti-Fel d 1 monoclonal antibody G078, human IgG4 format (P01861 whole entry, looked up): as above
Sequence of native human IgG4 (P01861 whole entry, looked up): as above
Sequence of recombinant anti-Fel d 1 monoclonal antibody A044, human IgG4 format (P01861 whole entry, looked up): as above

Row | Substance | Kd [1] [nM] | koff [1] [s⁻¹] | koff [2] [s⁻¹]
1 | recombinant anti-Fel d 1 monoclonal antibody F127, human IgG1 format (from UniProt P01857) | 27 | – | –
2 | native human IgG4 (from UniProt P01861) | 31 | 0.002 | –
3 | recombinant anti-Fel d 1 monoclonal antibody G078, human IgG4 format (from UniProt P01861) | 34 | 0.0016 | –
4 | recombinant anti-Fel d 1 monoclonal antibody A044, human IgG1 format (from UniProt P01857) | 18 | – | –
5 | recombinant anti-Fel d 1 monoclonal antibody A044, human IgG4 format (from UniProt P01861) | 18 | 0.00081 | –
6 | recombinant anti-Fel d 1 monoclonal antibody F127, human IgG4 format (from UniProt P01861) | 27 | 0.0014 | 0.00126
